B1: Chromodomain-helicase-DNA-binding protein 7, residues 2564 to 2605; numbered along this chain, Q9P2D1 (parent)
chain: DPDTRIPVINLEDGTRLVGEDAPKNKDLVEWLKLHPTYTVDM
B2: Histone H1t, residues 44 to 112; numbered along this chain, P22492 (parent)
chain: VSKLITEALSVSQERVGMSLVALKKALAAAGYDVEKNNSRIKLSLKSLVNKGILVQTRGTGASGSFKLS

± gives the uncertainty stated by the source.

Variants of B1 are the subject of one data set. The experiment in a line: abundance fitness (aPCA) (normalised: wild type 0, dead -1); higher = more abundant; growth selection in yeast, the domain comes from the species named. As to conditions: Homo sapiens.
On to DPDTRIPVRNLEDGTRLVGEDAPKNKDLVEWLKLHPTYTVDM [I9R], for which the abundance fitness is 0.064 ± 0.12.

In the case of DPDTRIPVQNLEDGTRLVGEDAPKNKDLVEWLKLHPTYTVDM [I9Q], the abundance fitness was -0.032 ± 0.12.

With APDTRIPVINLEDGTRLVGEDAPKNKDLVEWLKLHPTYTVDM [D1A], the abundance fitness was -0.69 ± 0.093.

For CPDTRIPVINLEDGTRLVGEDAPKNKDLVEWLKLHPTYTVDM [D1C], the abundance fitness is -0.283 ± 0.1.

Take SPDTRIPVINLEDGTRLVGEDAPKNKDLVEWLKLHPTYTVDM [D1S]: the abundance fitness is -0.237 ± 0.081.

As for DPDTRIPVINLEDGTRLGGEDAPKNKDLVEWLKLHPTYTVDM [V18G], the abundance fitness is -0.04 ± 0.059.

In the case of DPDTRIPVINLEDGTRLQGEDAPKNKDLVEWLKLHPTYTVDM [V18Q], the abundance fitness is 0.108 ± 0.087.

Consider DPFTRIPVINLEDGTRLVGEDAPKNKDLVEWLKLHPTYTVDM [D3F], for which the abundance fitness was -0.259 ± 0.11.

Take DPMTRIPVINLEDGTRLVGEDAPKNKDLVEWLKLHPTYTVDM [D3M]: the abundance fitness is -0.063 ± 0.059.

On to DPETRIPVINLEDGTRLVGEDAPKNKDLVEWLKLHPTYTVDM [D3E], for which the abundance fitness is 0.106 ± 0.057.

For DPVTRIPVINLEDGTRLVGEDAPKNKDLVEWLKLHPTYTVDM [D3V], the abundance fitness was -0.335 ± 0.095.

On to DPWTRIPVINLEDGTRLVGEDAPKNKDLVEWLKLHPTYTVDM [D3W], for which the abundance fitness is -0.53 ± 0.11.

For the variant DPTTRIPVINLEDGTRLVGEDAPKNKDLVEWLKLHPTYTVDM [D3T], the abundance fitness is -0.182 ± 0.05.

As to DPDTRIPVINLEDGTRLVGEDAPKNKDLVEWLKLHPTYTEDM [V40E], the abundance fitness was -0.238 ± 0.067.

For DPDTRIPVINLEDGTRLVGEDAPKNKDLVEWLKLHPTYTPDM [V40P], the abundance fitness is -0.166 ± 0.08.

With DPDTRIPVINLEDGTRLVGEDAPKNKDLVEWLKLHPTYTNDM [V40N], the abundance fitness is -0.341 ± 0.071.

As to DPDTRIPVINLEDGTRLVGEDAPKNKDLVEWLKLHPTYTGDM [V40G], the abundance fitness is -0.367 ± 0.044.

Take DPDTRIPVINLEDGTRLVGEDACKNKDLVEWLKLHPTYTVDM [P23C]: the abundance fitness is -0.497 ± 0.15.

With DPDTRIPVINLEDGTRLVGEDAYKNKDLVEWLKLHPTYTVDM [P23Y], the abundance fitness is -1.1 ± 0.16.

Take DPDTRIPVINLEDGTRLVGEDANKNKDLVEWLKLHPTYTVDM [P23N]: the abundance fitness is -0.915 ± 0.15.

For DPDTRIPVINLEDGTRLVGEDAPKNKDLVEWLCLHPTYTVDM [K33C], the abundance fitness is -0.4 ± 0.069.

For DPDTRIPVINLEDGTRLVGEDAPKNKDLVEWLILHPTYTVDM [K33I], the abundance fitness was -0.449 ± 0.058.

Take DPDTRIPVINLEDGTRLVGEDAPKNKDLVEWLTLHPTYTVDM [K33T]: the abundance fitness is -0.468 ± 0.088.

Regarding DPDTRIPVINLEDGTRLVGEDAPKNKDLVEWLALHPTYTVDM [K33A], the abundance fitness turned out to be 0.162 ± 0.12.

Turning to DPDTRIPVINLEDGTRLVGEDAPKNKDFVEWLKLHPTYTVDM [L28F], the abundance fitness was -0.24 ± 0.11.

As for DPDTRIPVINLEDGTRLVGEDAPKNKDQVEWLKLHPTYTVDM [L28Q], the abundance fitness is -0.841 ± 0.2.

Regarding DPDTRIPVINLEDGTRLVGEDAPKNKDPVEWLKLHPTYTVDM [L28P], the abundance fitness is -0.568 ± 0.11.

Consider DPDTRIPVINLEDGTRLVGEDAPKNKDDVEWLKLHPTYTVDM [L28D], for which the abundance fitness was -0.432 ± 0.056.

As for DPDTRIPVINLEDGTRLVGEDAPKNKDLVEWLKLHPTYVVDM [T39V], the abundance fitness was -0.004 ± 0.063.

Turning to DPDTRIPVINLEDGTRLVGEDAPKNKDLVRWLKLHPTYTVDM [E30R], the abundance fitness is -0.277 ± 0.072.

Consider DPDTRIPVINLEDGTRLVGEDAPKNKDLVHWLKLHPTYTVDM [E30H], for which the abundance fitness was -0.262 ± 0.095.

As for DPDTRIPVINLEDGTRLVGEDAPKNKDLVLWLKLHPTYTVDM [E30L], the abundance fitness is -0.497 ± 0.056.

On to DPDTRIPVINLEDGTRLVGEDAPKNKDLVEWLKLHPTYTVWM [D41W], for which the abundance fitness is -0.84 ± 0.2.

Turning to DPDTRIPVINLEDGTRLVGEDAPKNKDLVEWLKLHPTYTVHM [D41H], the abundance fitness is -0.364 ± 0.092.

With DPDTRIPVINLEDGTRLVGEDAPKNKDLVEWLKLHPTYTVIM [D41I], the abundance fitness is -0.871 ± 0.097.

In the case of DPDTRIPVINLEDGTRLVGEDAPKNKDLVECLKLHPTYTVDM [W31C], the abundance fitness is -0.301 ± 0.051.

For the variant DPDTREPVINLEDGTRLVGEDAPKNKDLVEWLKLHPTYTVDM [I6E], the abundance fitness was -0.276 ± 0.11.

For the variant DPDTRFPVINLEDGTRLVGEDAPKNKDLVEWLKLHPTYTVDM [I6F], the abundance fitness was -0.283 ± 0.15.

Regarding DPDTRSPVINLEDGTRLVGEDAPKNKDLVEWLKLHPTYTVDM [I6S], the abundance fitness was -0.189 ± 0.44.

For the variant DPDTRVPVINLEDGTRLVGEDAPKNKDLVEWLKLHPTYTVDM [I6V], the abundance fitness came to 0.262 ± 0.1.

On to DPDTRIPVINLEDGGRLVGEDAPKNKDLVEWLKLHPTYTVDM [T15G], for which the abundance fitness came to 0.081 ± 0.053.

DPDTRIPVINLEDGVRLVGEDAPKNKDLVEWLKLHPTYTVDM [T15V]: the abundance fitness amounted to 0.023 ± 0.068.

Regarding DPDTRIPVINLEDGTRLVGEDAPKNKDLWEWLKLHPTYTVDM [V29W], the abundance fitness was -0.416 ± 0.09.

For DPDTRIPVINLEDGTRLVGEDAPKNKDLREWLKLHPTYTVDM [V29R], the abundance fitness amounted to 0.121 ± 0.056.

With DPDTRIPVINLEDGTRLVGEDAPKNKDLSEWLKLHPTYTVDM [V29S], the abundance fitness is 0.063 ± 0.084.

For DPDTRIPVINLEDGTRLVGEDAPKNKDLKEWLKLHPTYTVDM [V29K], the abundance fitness was 0.229 ± 0.089.

With DPDTRIPVINLEDGTRLVLEDAPKNKDLVEWLKLHPTYTVDM [G19L], the abundance fitness was -0.518 ± 0.13.

Regarding DPDTRIPNINLEDGTRLVGEDAPKNKDLVEWLKLHPTYTVDM [V8N], the abundance fitness was -0.578 ± 0.13.

DPDTRIPRINLEDGTRLVGEDAPKNKDLVEWLKLHPTYTVDM [V8R]: the abundance fitness was -0.624 ± 0.15.

Turning to DPDTRIPAINLEDGTRLVGEDAPKNKDLVEWLKLHPTYTVDM [V8A], the abundance fitness is -0.535 ± 0.18.

For DPDTRIPVINLEDLTRLVGEDAPKNKDLVEWLKLHPTYTVDM [G14L], the abundance fitness was -0.424 ± 0.089.

For the variant DPDTRIPVINLEDFTRLVGEDAPKNKDLVEWLKLHPTYTVDM [G14F], the abundance fitness is -0.277 ± 0.16.

The next data set covers variants of B2. The description is as above. As to conditions: Homo sapiens.
On to VSKLITEALSVSQERVGMSLVALKKALAAAGYDVEKNNSRIKLSLKSLVNKGILVQTRGTGASGSFKLP [S69P], for which the abundance fitness was -0.115 ± 0.039.

In the case of VSKLITEALSVSQERVGMSLVALKKALAAAGYDVEKNNSRIKLSLKSLVNKGILVQTRGTGASGSFKLQ [S69Q], the abundance fitness was -0.102 ± 0.091.

As to VSKLITEALSVSQERVGMSLVALKKALAAAGYDVEKNNSRIKLSLKSLVNKGILVQTRGTGASGSFKLY [S69Y], the abundance fitness turned out to be 0.171 ± 0.08.

With VSKLITEALSVSQERVGMSLVALKKALAAAGYDVEKNNSRIKLSLKSLVNKGILVQTRGTGASGSFKLV [S69V], the abundance fitness was -0.093 ± 0.056.

VSKLITEALSVSQERVGMSLVALKKALAAAGYDVEKNNSRIKLSLKSLVNKGILVQTRGTGASGSFKLW [S69W]: the abundance fitness came out at 0.173 ± 0.05.

Take VSKLITEALSVSQERVGMSLVALKKALAAAGYDVEKNNSRIKLSLKSLVNKGILVQTRGTGASGSFKLT [S69T]: the abundance fitness is -0.029 ± 0.044.

On to VSKLITEALSVSQERVGMSLVALKKALAAAGYDVEKNNSRIKLSLKSLVNKGILVQTRGTGASGSFKLR [S69R], for which the abundance fitness was -0.151 ± 0.041.

The values are drawn from the Human Domainome abundance scans (Beltran et al. 2025).
